Target: Flag::Hth (Homothorax, Flag-tagged) (Drosophila) (UniProt O46339)
Test: co-IP; SF9 extracts with Flag::Hth, His::Exd and HA::Abd-B (wild type or W>A) mixed and incubated on anti-Flag resin; lysis solution 140 mM KCl, 5% glycerol, 2.5% MgCl2, 25 mM Hepes pH 7.8, 10 mM imidazole; Western blot by the tags

UniProt O46339, sequence (O46339 whole entry): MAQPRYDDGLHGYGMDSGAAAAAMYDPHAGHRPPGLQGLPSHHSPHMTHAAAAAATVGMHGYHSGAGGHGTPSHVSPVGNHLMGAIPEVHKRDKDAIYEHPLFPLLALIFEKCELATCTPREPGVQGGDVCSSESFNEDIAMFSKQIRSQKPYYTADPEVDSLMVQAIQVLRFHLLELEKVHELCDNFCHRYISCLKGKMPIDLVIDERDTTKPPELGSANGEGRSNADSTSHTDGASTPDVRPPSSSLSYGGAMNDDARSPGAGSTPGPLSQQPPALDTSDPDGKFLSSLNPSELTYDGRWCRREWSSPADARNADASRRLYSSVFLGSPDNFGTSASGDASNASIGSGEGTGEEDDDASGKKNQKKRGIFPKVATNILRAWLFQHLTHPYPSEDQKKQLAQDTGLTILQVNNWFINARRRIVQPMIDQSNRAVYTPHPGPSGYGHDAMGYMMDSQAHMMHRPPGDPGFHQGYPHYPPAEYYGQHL

percent reduction of co-precipitated protein against wild-type Abd-B: 24%
Substance: HA::Abd-B^W (Abdominal-B with the Tryptophan of the HX-like motif mutated to Alanine, HA-tagged) (from UniProt P09087 1-493)
